Test results published in patent US6472178.

What was measured:
[1] = target: T1, rat CNTF receptor on rat superior cervical ganglia (SCG) neurons (rat, UniProt Q08406 23-342); test: competition with 125I-rat CNTF on rat SCG neurons
T1 construct: whole, on cells; Native neurons; also called rat receptor
T1 sequence (looked up): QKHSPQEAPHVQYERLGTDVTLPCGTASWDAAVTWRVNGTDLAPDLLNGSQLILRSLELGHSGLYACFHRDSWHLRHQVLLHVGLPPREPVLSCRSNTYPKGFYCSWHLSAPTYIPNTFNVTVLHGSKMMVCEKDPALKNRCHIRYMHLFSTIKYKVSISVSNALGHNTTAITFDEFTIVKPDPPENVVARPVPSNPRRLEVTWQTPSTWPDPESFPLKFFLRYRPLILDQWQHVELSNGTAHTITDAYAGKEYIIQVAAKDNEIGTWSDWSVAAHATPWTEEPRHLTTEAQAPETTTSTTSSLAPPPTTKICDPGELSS
Procedure: Reactions were incubated for 45 min at 0° C. followed by 15 min at room temperature and terminated by the addition of […] of 0.2 M glycine solution. After 15 min, 0.2 ml PBS containing 0.08% gelatin was also added and the mixture was passed through a Superdex-75 column (Pharmacia) to separate the labelled monomeric CNTF from dimeric and other multimeric derivatives. Percentage of incorporation was typically 20%, as determined by thin layer chromatography and the specific activity was typically around 1,000 Ci/mmole. […] Growth medium consisted of Ham's nutrient mixture F12 with 10% heat-inactivated fetal bovine serum (Hyclone), nerve growth factor (NGF) (100 ng/ml), penicillin (50 U/ml) and streptomycin (50 µg/ml). Cultures were maintained at 37° C. in a humidified 95% air/5% CO_2 atmosphere. Ganglion non-neuronal cells were eliminated by treatment with araC (10 µM) on days 1 and 3 of culture. Cultures were fed 3 times/week and were routinely used for binding assays within 2 weeks.
Binding was performed directly on cell monolayers. Cells in culture wells were washed once with assay buffer consisting of phosphate buffered saline (PBS; pH 7.4), 0.1 mM bacitracin, 1 mM PMSF, 1 µg/ml leupeptin, and 1 mg/ml BSA. […] Non-specific binding was determined in the presence of 1,000-fold excess of unlabelled CNTF. […] Data were analyzed using the […] program (ISI, Philadelphia, Pa.).

[2] = target: T2, human CNTF receptor α-component on MG87/CNTFR fibroblasts (human, UniProt P26992 23-342); test: competition with 125I-rat CNTF on MG87/CNTFR cells
T2 construct: whole, on cells; also called CNTFRα; MG87/huCNTFR
T2 sequence (looked up): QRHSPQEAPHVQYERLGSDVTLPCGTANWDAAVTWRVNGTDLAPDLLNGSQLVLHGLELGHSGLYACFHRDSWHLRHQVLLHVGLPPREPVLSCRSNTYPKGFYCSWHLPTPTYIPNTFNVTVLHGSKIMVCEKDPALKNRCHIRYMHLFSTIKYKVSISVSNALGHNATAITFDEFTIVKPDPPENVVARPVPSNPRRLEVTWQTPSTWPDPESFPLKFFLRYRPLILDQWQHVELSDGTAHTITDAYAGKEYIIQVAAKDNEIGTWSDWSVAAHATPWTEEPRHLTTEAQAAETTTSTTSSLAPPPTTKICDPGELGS

B1: recombinant rat CNTF (ciliary neurotrophic factor) (ligand)
chain: MAFAEQTPLTLHRRDLCSRSIWLARKIRSDLTALMESYVKHQGLNKNINLDSVDGVPVASTDRWSEMTEAELRQENLQAYRTFQGMLTKLLEDQRVHFTPTEGDFHQAIHTLMLQVSAFAYQLEELMVLLEQKIPENEADGMPATVGDGGLFEKKLWGLKVLQELSQWTVRSIHDLRVISSHQMGISALESHYGAKDKQM
notes: also called unlabelled rat CNTF
Question: How did the IC50 [1] turn out when B1 was run?
Answer: 0.28 nM

Question: And the IC50 [2]?
Answer: 2.8 nM
